US20200247894A1 (Regeneron, published 2020)
Numbering of substitutions follows the chain as printed.

T1: Macaca fascicularis IL2Rγ extracellular domain expressed with a C-terminal myc-myc-hexahistidine tag (Macaca fascicularis)
T1 construct: also called mfIL-2Rg-MMH; mfIL-2RG-MMH
T1 chain: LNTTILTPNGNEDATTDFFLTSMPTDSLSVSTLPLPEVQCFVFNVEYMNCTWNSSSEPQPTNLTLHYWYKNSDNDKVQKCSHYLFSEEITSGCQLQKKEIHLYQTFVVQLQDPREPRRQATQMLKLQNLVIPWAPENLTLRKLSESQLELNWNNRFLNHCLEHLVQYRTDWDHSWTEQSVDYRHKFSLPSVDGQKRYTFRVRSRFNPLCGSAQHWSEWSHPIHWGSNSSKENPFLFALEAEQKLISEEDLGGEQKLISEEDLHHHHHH

T2: Human IL2Rγ extracellular domain expressed with a C-terminal myc-myc-hexahistidine tag (human)
T2 construct: also called hIL-2Rg-MMH; hIL-2RG-MMH
T2 chain: T1 chain with A14T, T16A, S22T, R141H, S228T

B1: H4H12913P2 (antibody, human IgG4 S228P, kappa, V domains shown)
VH: EVQLVESGGGVVRPGGSLRLSCAASGFTFDDYGMSWVRQAPGKGLEWISSINRNGGSADYADSVKGRFTISRDNAKNSLFLQMSSLRAEDTALYHCASGEFRFDYWGQGTLVTVSS
VL: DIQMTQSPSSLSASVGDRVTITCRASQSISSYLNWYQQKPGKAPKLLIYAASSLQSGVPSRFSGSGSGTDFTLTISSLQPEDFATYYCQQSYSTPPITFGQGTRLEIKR
notes: anti-IL2Rγ monoclonal antibody expressed with human IgG4 Fc
B2: H4H12922P2 (antibody, human IgG4 S228P, kappa, V domains shown)
VH: QVQLVESGGGVVKPGGSLRLSCAASGFTFSNSGIHWVRQAPGKGLEWVALISYAGSNKYYADSVKGRFTISRDNSKNTLSLQMNSLRAEDTAVYYCAKEVWTGTYDSFDMWGRGTMVTVSS
VL: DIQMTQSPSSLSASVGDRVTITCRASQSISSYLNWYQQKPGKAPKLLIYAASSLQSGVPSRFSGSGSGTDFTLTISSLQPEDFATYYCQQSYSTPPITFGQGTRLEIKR
notes: anti-IL2Rγ monoclonal antibody expressed with human IgG4 Fc; also called REGN7256
B3: H4H12858P (antibody, human IgG4 S228P, kappa, V domains shown)
VH: EVQLVESGGDLVQPGGSLRLSCTASGFIFRNYAMNWVRQAPGKGLEWLSGILGSNDNTYYVDSVKGRFTISRDNSRNTLYLQMNSLRAEDSAVYYCAKGDAGGFDYWGQGTLVTVSS
VL: DVVMTQSPLSLPVILGQPASISCRSSQSLVSSDGNTYLNWFQQRPGQSPRRLIYKVSNRDSGVPDRFSGSGSGTDFTLKISRVEAEDVGAYYCMQGSYWPPTFGQGTKLEIKR
notes: anti-IL2Rγ monoclonal antibody expressed with human IgG4 Fc; also called REGN9433
B4: H4H12859P (antibody, human IgG4 S228P, kappa, V domains shown)
VH: QVQLVQSGAEVKKPGASVRVSCKASGYTFTDYDIHWVRQAPGHGLEWMGWINPNSGGTNYAQKFQGRVTMTRDTSISTVYMDLSRLRSDDTAVYYCARADYSSSYYYYGMDVWGQGTTVTVSS
VL: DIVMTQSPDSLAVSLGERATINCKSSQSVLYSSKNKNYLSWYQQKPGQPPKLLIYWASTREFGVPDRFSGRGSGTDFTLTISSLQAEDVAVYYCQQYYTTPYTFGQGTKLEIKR
notes: as for B1
B5: H4H12863P (antibody, human IgG4 S228P, kappa, V domains shown)
VH: QVQLVESGGGVVQPGRSLRLSCTASGFTFRSYDMYWVRQAPGKGLEWVSVITYDGNNKYYADSVKGRFTISRDNSKNTLFLQMSSLRPEDTAVYYCAKRGLIWVGESFDYWGQGTLVTVSS
VL: DIQMTQSPSTLSASVGDRVTITCRASQSINSWLAWYQQKPGKAPNLLIYKASSLESGVPSRFSGSGSGTEFTLTISSLQPDDFATYYCQQYKSYSWTFGQGTKVEIKR
notes: as for B1
B6: H4H12871P (antibody, human IgG4 S228P, kappa, V domains shown)
VH: QVQLQESGPGLVKPSQTLSLTCTVSGGSITSGGYYWSWIRQYPGQGLEWIGYIYYSGKTYYNPSFTSRITISVDTSKKQFSLKMSSVTAADTAVYYCARAGFTSSNGWFDPWGQGTLVTVSS
VL: DIQMTQSPSSLSASVGDRVTITCRASQNIRSYLNWYQQKPGKAPKLLIYSASSLQSGVPSRFSGSGSGTDFTLTISSLQPEDFPTYYCQQTYSSPWTFGPGTKVEIKR
notes: anti-IL2Rγ monoclonal antibody expressed with human IgG4 Fc; also called REGN9434
B7: H4H12874P (antibody, human IgG4 S228P, kappa, V domains shown)
VH: QVQLVESGGGVVQPGRSLRLSCAASGFNFRNFGMHWVRQAPGKGLEWVAGILYDGSSKYYADSVKDRFTISRDNSKNTLFLQMNSLRAEDTAMYYCAKEEDTAMVPFDSWGPGTLVTVSS
VL: DIQLTQSPSFLSASVGDRVTITCWASQGISSYLAWYQQKPGKAPTLLIYAASTLQSGVPSRFSGSGSGTEFTLTISSLQPEDFASYYCQQLKSYPLTFGGGTKVEIKR
notes: as for B1
B8: H4H12884P (antibody, human IgG4 S228P, kappa, V domains shown)
VH: QVQLQESGPGLVKPSQTLSLTCTVSGGSISSGGYYWSWIRQHPGKGLEWIGFIYYSGKTYYNPSLKSRLTISVDTSKSQFSLKLRSVTAADTAVYYCARLGYTNSAGWFDPWGQGTLVTVSS
VL: DIQMTQSPSSLSASVGDRVTITCRASQSISSYLNWYQQKPGKAPNLLIYAASSLQSGVPSRFSGSGSGTDFTLTISSLQPEDLATYYCQQSYTTPFTFGPGTKVDIKR
notes: as for B1

Biological target: T1, Macaca fascicularis IL2Rγ extracellular …
Test: SPR Biacore 4000, mAb captured by anti-hFc, HBS-ET, 25C
Protocol: (§1) Equilibrium dissociation constants (KD values) for IL-2Rγ binding to purified anti-IL2Rγ monoclonal antibodies were determined using a Biacore 4000 instrument equipped with a real-time surface plasmon resonance biosensor. All binding studies were performed in 10 mM HEPES, 150 mM NaCl, 3 mM EDTA, and 0.05% v/v Surfactant Tween-20, pH 7.4 (HBS-ET) running buffer at 25° C. and 37° C. The Biacore sensor surface was first derivatized by amine coupling with a monoclonal mouse anti-human Fc antibody (GE, # BR-1008-39) to capture anti-IL2Rγ monoclonal antibodies.
(§2) The dissociation of monoclonal antibody bound IL2Rγ reagents were monitored for 8-10 minutes in HBS-ET running buffer. Kinetic association (kₐ) and dissociation (kd) rate constants were determined by fitting the real-time sensorgrams to a 1:1 binding model using Scrubber 2.0c curve fitting software. Binding dissociation equilibrium constants (KD) and dissociative half-lives (t_{1/2}) were calculated from the kinetic rate constants as: […]

Binder | 100 nM Ag Bound [RU] | Kd [nM] | koff [s⁻¹] | kon [M⁻¹ s⁻¹] | t1/2 [min]
B1 | 34 | 14.1 | 0.000633 | 44900 | 18
B2 | 76 | 1.64 | 0.000386 | 235000 | 30
B3 | 58 | 2.36 | 0.000269 | 114000 | 43
B4 | 17 | 126 | 0.00507 | 40300 | 2.3
B5 | 81 | 1.91 | 0.00036 | 189000 | 32
B6 | 72 | 5.19 | 0.000905 | 174000 | 13
B7 | 50 | 4.28 | 0.000306 | 71500 | 38
B8 | 82 | 6.98 | 0.00121 | 174000 | 10

Biological target: T2, Human IL2Rγ extracellular domain …
Test: as above
Protocol: as §1, §2

Binder | 100 nM Ag Bound [RU] | Kd [nM] | koff [s⁻¹] | kon [M⁻¹ s⁻¹] | t1/2 [min]
B1 | 42 | 11.2 | 0.000691 | 62000 | 17
B2 | 79 | 1.3 | 0.000386 | 297000 | 30
B3 | 67 | 1.23 | 0.000316 | 257000 | 37
B4 | 27 | 87.6 | 0.00321 | 36600 | 4
B5 | 91 | 1.7 | 0.000384 | 226000 | 30
B6 | 77 | 5.03 | 0.001 | 199000 | 12
B7 | 57 | 3.57 | 0.000305 | 85200 | 38
B8 | 84 | 6.96 | 0.00139 | 199000 | 8

Biological target: T2, Human IL2Rγ extracellular domain …
Test: SPR Biacore 4000, mAb captured by anti-hFc, HBS-ET, 37C
Protocol: as §1, §2

Binder | 100 nM Ag Bound [RU] | Kd [nM] | koff [s⁻¹] | kon [M⁻¹ s⁻¹] | t1/2 [min]
B1 | 24 | 33.4 | 0.00348 | 104000 | 3.3
B2 | 44 | 2.58 | 0.00105 | 407000 | 11
B3 | 57 | 4.52 | 0.00174 | 386000 | 7
B4 | 18 | 187 | 0.0129 | 69000 | 0.9
B5 | 77 | 4.11 | 0.00151 | 367000 | 8
B6 | 61 | 10.6 | 0.00266 | 250000 | 4
B7 | 52 | 10.4 | 0.00125 | 120000 | 9
B8 | 62 | 13.1 | 0.00336 | 257000 | 3.4

Biological target: T1, Macaca fascicularis IL2Rγ extracellular …
Test: SPR Biacore 4000, mAb captured by anti-hFc, 37C, dissociation in PBS-T pH 7.4
Protocol: (§3) The dissociation rate constant (kd) for binding of IL-2Rγ reagents to purified anti-IL2Rγ monoclonal antibodies was determined using a real-time surface plasmon resonance based Biacore 4000 biosensor platform. […] The CM5 Biacore sensor surface derivatized by amine coupling with monoclonal mouse anti-human Fc antibody (GE, Catalog # BR-1008-39) was used to capture anti-IL2Rγ monoclonal antibodies expressed with human IgG4 Fc. All the IL2Rγ reagents were expressed with a C-terminal myc-myc-hexahistidine tag (subsequently referred to with a -MMH suffix). […] The dissociation of bound IL-2Rg-MMH was performed in PBS-T-pH7.4 or PBS-T-pH6.0 running buffers for 6 minutes.
(§4) Dissociation rate constants (kd) in two running buffers were determined by fitting the real-time binding sensorgrams to a 1:1 binding model using Scrubber 2.0c curve-fitting software. Values of dissociation rate for […] mAb binding to hIL-2RG-MMH and mfIL-2RG-MMH at 25° C. and 37° C. in PBS-T-pH7.4 and PBS-T-pH6.0 is shown in Table 2-1 through Table 2-8.

Binder | 100 nM Ag Bound (RU) | koff [s⁻¹] | t1/2 [min]
B1 | 76 | 0.000894 | 13
B2 | 185 | 0.000693 | 17
B3 | 143 | 0.000542 | 21
B4 | 47 | 0.00397 | 2.9
B5 | 177 | 0.000606 | 19
B6 | 143 | 0.00102 | 11
B7 | 92 | 0.000541 | 21
B8 | 171 | 0.00147 | 8

Biological target: T1, Macaca fascicularis IL2Rγ extracellular …
Test: SPR Biacore 4000, mAb captured by anti-hFc, 37C, dissociation in PBS-T pH 6.0
Protocol: as §3, §4

Binder | 100 nM Ag Bound (RU) | koff [s⁻¹] | t1/2 [min]
B1 | 54 | 0.00296 | 4
B2 | 146 | 0.00344 | 3.4
B3 | 134 | 0.00155 | 7
B4 | 31 | 0.0123 | 0.9
B5 | 141 | 0.00208 | 6
B6 | 141 | 0.00227 | 5
B7 | 82 | 0.00255 | 5
B8 | 135 | 0.00335 | 3.4
